Data on 3 molecules can be found in patent publication US6790444.

The target of one test is T1, human lymphotoxin (TNFβ) (human, UniProt P01374 35-205, limits assumed).
T1 sequence (looked up): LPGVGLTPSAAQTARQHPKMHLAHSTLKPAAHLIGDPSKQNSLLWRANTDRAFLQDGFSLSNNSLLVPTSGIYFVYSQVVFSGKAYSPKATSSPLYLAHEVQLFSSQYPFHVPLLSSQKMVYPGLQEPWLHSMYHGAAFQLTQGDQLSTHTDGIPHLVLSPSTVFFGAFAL
In words: cell-based or functional assay.

Test [1] concerns the target human tumor necrosis factor-α (TNFα) (human) (UniProt P01375). In words: cell-based or functional assay.

Chain of human tumor necrosis factor-α (TNFα) (human) (P01375 77-233): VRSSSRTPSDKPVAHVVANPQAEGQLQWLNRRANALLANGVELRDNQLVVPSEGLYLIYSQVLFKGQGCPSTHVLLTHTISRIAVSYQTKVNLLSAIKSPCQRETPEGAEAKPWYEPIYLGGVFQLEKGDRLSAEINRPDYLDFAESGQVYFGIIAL

Turning to “p55-sf2 (p55 TNF receptor / IgG1 heavy chain single fusion with truncated light chain JCK) (from UniProt P19438 32-188) (Fc fusion)”, the amount needed for the same degree of inhibition of TNFβ cytotoxicity, against p75P-sf2 with human lymphotoxin (TNFβ) is 3 fold.

B1: chimeric mouse/human IgG1 anti-platelet mAb (7E3) (antibody, INN chains, looked up, V domains shown)
VH: EVQLQQSGTVLARPGASVKMSCEASGYTFTNYWMHWVKQRPGQGLEWIGAIYPGNSDTSYIQKFKGKAKLTAVTSTTSVYMELSSLTNEDSAVYYCTLYDGYYVFAYWGQGTLVTVSA
VL: EIVLTQSPVTLSVTPGDSVSLSCRASRDISNNLHWFQQTSHESPRLLIKYASQSMSGIPSRFSGSGSGTDFTLSINSVETEDFGMYFCQQTNSWPYTFGGGTKLEIK
modifications: chimeric IgG1
With B1, in test [1], the IL-6 secreted by FS-4 fibroblasts; 0.3 ng/ml rhTNF, 4 µg/ml antibody stood at 1.6 ng/mL; the IL-6 secreted by FS-4 fibroblasts; 1.5 ng/ml rhTNF, 4 µg/ml antibody was determined as 1.96 ng/mL; the IL-6 secreted by FS-4 fibroblasts; 7.5 ng/ml rhTNF, 4 µg/ml antibody worked out at 2.16 ng/mL.

B2: p75-sf2 (complete p75 extracellular domain fused to the IgG1 heavy chain) (Fc fusion)
chain: QLPAQVAFTPYAPEPGSTCRLREYYDQTAQMCCSKCSPGQHAKVFCTKTSDTVCDSCEDSTYTQLWNWVPECLSCGSRCSSDQVETQACTREQNRICTCRPGWYCALSKQEGCRLCAPLRKCRPGFGVARPGTETSDVVCKPCAPGTFSNTTSSTDICRPHQICNVVAIPGNASMDAVCTSTSPTRSMAPGAVHLPQPVSTRSQHTQPTPEPSTAPSTSFLLPMGPSPPAEGSTGDGTLVTVSS
As for B2, the “amount needed for the same degree of inhibition of TNFβ cytotoxicity, against p75P-sf2” value with human lymphotoxin (TNFβ) came out at 3 fold.
